In the data set the target is T1, Egalitarian (EGL) (UniProt Q9W1K4).
T1 sequence: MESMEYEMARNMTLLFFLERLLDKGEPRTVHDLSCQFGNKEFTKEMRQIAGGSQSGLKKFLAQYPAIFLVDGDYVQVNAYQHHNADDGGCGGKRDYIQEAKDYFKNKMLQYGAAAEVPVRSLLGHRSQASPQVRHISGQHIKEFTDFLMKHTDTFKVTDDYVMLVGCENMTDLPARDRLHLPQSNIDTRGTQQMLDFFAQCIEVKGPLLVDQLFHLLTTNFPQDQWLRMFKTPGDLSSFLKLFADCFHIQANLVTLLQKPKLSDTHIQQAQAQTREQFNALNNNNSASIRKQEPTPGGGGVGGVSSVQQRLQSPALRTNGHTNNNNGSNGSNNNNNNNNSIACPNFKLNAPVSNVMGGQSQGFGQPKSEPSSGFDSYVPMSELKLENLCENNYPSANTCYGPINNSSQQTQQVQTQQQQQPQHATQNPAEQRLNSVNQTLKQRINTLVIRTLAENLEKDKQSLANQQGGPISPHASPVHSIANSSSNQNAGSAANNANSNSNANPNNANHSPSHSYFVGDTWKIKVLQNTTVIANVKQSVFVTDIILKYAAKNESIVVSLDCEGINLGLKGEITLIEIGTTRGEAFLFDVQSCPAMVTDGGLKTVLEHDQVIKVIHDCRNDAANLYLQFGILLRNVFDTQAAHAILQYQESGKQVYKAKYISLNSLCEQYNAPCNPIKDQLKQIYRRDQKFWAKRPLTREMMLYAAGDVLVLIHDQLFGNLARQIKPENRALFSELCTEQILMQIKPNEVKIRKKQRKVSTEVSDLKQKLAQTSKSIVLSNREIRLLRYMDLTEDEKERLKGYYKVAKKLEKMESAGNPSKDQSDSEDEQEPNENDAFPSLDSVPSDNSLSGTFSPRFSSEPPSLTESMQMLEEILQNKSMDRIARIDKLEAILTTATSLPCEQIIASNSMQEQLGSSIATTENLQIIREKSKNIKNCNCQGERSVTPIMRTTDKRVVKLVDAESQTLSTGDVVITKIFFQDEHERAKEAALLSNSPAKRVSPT
Description: pull-down. The following applies: reference (all sets normalized to TLS); EGL capture: DXB buffer (30 mM Hepes pH 7.3, 50 mM KCl, 2.5 mM MgCl2, 250 mM sucrose, 1 mM DTT), protease and RNase inhibitors, 90 min (binding temperature not …).

fs(1)K10 TLS gave a binding signal (fraction of TLS binding) of 1.

For the origin of these results see PMC8046350.
